Source: US10087225B2, “Formulation of MK2 inhibitor peptides” (MOERAE MATRIX, INC., priority 2015, dated 2018)

Key:
Experiment in all cases: Kinase Profiling Assay
Assay type in all cases: biochemical
Conditions in all cases: for % activity: 100 μM
BrSK1(h) = molecular target: T1, BrSK1(h) (Homo sapiens, UniProt Q8TDC3)
T1 sequence (Q8TDC3 1-778): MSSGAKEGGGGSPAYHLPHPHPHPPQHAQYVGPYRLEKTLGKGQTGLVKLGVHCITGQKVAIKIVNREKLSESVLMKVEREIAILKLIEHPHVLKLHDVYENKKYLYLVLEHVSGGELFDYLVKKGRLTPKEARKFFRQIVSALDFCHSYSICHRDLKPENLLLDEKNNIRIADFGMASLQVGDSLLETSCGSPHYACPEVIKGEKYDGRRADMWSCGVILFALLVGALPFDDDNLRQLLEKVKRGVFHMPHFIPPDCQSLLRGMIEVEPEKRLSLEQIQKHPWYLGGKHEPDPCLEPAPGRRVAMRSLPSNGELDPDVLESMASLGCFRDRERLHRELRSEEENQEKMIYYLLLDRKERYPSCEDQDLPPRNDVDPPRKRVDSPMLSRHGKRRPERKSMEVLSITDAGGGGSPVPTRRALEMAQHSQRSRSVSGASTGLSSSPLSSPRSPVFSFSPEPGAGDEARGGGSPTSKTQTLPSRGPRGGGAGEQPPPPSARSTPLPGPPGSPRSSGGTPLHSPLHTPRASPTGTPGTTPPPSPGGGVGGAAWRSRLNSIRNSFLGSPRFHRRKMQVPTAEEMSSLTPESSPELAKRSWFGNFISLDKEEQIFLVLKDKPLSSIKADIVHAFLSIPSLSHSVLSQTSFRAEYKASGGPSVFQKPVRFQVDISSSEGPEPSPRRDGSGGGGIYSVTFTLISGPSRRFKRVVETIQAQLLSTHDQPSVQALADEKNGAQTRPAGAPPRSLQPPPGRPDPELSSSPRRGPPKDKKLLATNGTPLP

EGFR(L858R)(h) = EGFR(L858R)(h) (Homo sapiens, UniProt P00533, L858R)
EphB4(h) = molecular target: T2, EphB4(h) (Homo sapiens, UniProt P54760)
T2 sequence (P54760 16-987): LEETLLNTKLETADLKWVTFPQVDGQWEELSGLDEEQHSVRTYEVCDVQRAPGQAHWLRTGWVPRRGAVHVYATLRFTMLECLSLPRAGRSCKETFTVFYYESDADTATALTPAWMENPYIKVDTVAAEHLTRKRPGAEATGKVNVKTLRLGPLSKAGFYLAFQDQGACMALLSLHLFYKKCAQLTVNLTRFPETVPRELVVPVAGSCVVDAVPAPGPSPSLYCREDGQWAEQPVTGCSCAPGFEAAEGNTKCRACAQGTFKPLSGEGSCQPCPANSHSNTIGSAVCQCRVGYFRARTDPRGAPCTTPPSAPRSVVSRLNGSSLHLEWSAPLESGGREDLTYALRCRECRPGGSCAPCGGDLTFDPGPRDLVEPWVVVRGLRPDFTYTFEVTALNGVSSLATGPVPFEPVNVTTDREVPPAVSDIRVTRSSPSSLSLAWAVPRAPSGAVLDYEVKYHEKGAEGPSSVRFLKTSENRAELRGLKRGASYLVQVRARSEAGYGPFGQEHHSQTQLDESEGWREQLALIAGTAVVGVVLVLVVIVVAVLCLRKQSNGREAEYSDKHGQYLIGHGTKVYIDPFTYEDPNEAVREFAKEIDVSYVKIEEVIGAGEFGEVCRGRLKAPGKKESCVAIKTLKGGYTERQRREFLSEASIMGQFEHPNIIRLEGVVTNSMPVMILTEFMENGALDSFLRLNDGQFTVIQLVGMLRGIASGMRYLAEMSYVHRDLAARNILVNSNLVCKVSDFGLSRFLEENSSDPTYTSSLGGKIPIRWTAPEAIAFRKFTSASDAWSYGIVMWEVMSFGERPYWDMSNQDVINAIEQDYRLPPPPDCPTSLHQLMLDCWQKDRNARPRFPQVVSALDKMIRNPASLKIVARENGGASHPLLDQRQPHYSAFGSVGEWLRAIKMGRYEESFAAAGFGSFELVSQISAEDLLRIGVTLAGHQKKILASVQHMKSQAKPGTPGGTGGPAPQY

IGF-1R(h), activated = IGF-1R(h), activated (Homo sapiens, UniProt P08069)
PKCτ(h) = molecular target: T3, PKCτ(h) (Homo sapiens, UniProt P41743)
T3 sequence (P41743 1-596): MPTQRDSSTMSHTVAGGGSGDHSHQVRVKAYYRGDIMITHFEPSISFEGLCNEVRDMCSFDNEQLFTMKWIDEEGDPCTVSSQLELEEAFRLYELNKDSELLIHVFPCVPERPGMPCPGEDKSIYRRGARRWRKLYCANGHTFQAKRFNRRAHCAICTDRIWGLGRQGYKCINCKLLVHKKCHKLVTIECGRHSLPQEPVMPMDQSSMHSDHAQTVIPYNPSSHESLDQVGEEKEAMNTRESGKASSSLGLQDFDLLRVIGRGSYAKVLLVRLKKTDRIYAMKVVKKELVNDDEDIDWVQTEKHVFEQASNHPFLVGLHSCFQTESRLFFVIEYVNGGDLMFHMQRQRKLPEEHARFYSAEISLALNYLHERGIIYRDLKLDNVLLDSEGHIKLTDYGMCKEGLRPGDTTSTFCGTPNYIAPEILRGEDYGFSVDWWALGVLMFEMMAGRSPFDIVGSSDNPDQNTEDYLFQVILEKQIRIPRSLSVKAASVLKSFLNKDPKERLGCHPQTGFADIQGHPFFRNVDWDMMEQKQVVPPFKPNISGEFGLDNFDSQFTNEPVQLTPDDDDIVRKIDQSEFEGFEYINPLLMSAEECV

Substance | % activity (BrSK1(h)) [%] | % activity (EGFR(L858R)(h)) [%] | % activity (EphB4(h)) [%] | % activity (IGF-1R(h), activated) [%] | % activity (PKCτ(h)) [%] | activity at 100 µM (BrSK1(h)) [%] | activity at 100 µM (EGFR(L858R)(h)) [%] | activity at 100 µM (EphB4(h)) [%] | activity at 100 µM (IGF-1R(h), activated) [%] | activity at 100 µM (PKCτ(h)) [%]
HRRIKAWLKKIKALARQLGVAA (Mammalian) [MMI-0500] | 72 | 26 | 38 | 45 | 7 |  |  |  |  | 
YARAAARQARAKALNRQLGVA (Mammalian) [MMI-0200] | 93 | 120 | 131 | 94 | 97 |  |  |  |  | 
H-YARAAARQARAKALARQLGVAA-OH [MMI-0100] |  |  |  |  |  | 100 | 76 | 62 | 126 | 110
